Target: T1, HA-Halo-MRAP2 (human), Q96G30
T1 chain: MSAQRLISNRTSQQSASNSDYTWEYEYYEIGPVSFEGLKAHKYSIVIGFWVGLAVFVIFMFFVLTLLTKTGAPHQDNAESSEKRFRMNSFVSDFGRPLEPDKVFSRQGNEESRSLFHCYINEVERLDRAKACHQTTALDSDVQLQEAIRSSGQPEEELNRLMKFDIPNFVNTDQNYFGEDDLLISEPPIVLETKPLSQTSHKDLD
Experiment: single-molecule pull-down (SiMPull) with photobleaching step counting; one colour: HEK293 cells expressing the HA-Halo-tagged protein alone, labelled at the surface with membrane-impermeable CA-Sulfo646, lysed in 0.5% LMNG/0.05% CHS, immobilised by the HA tag on slides with biotinylated HA antibody, single molecules imaged by TIRF
Conditions: remark: other sources report otherwise

B1: HA-Halo-MRAP2, Q96G30 1-205 (natural protein)
chain: T1 chain
modifications: here or on the partner: CA-Sulfo646 dye on the Halo tag; CA-Sulfo646 dye on the Halo tag
With B1 the percent of molecules with a single bleaching step was 68%, the percent of molecules with three or four bleaching steps was less than 5% and the percent of molecules with two bleaching steps was 28%.

— paper PMC7618510
